The target in one data set is KaiC-AA (S431A, T432A) (UniProt Q79PF4). Description: cryo-EM structure.
The data set “cryo-EM structure” deals with the molecule itself. In words: cryo-EM structure.

In turn, “KaiC-AA (S431A, T432A) (from UniProt Q79PF4 14-484) (enzyme)” came in with a stoichiometry N with KaiC-AA (S431A, T432A) of 6.

B1: KaiC-EE (S431E, T432E) (enzyme)
chain: EHQAIAKMRTMIEGFDDISHGGLPIGRSTLVSGTSGTGKTLFSIQFLYNGIIEFDEPGVFVTFEETPQDIIKNARSFGWDLAKLVDEGKLFILDASPDPEGQEVVGGFDLSALIERINYAIQKYRARRVSIDSVTSVFQQYDASSVVRRELFRLVARLKQIGATTVMTTERIEEYGPIARYGVEEFVSDNVVILRNVLEGERRRRTLEILKLRGTSHMKGEYPFTITDHGINIFPLGAMRLTQRSSNVRVSSGVVRLDEMCGGGFFKDSIILATGATGTGKTLLVSRFVENACANKERAILFAYEESRAQLLRNAYSWGMDFEEMERQNLLKIVCAYPESAGLEDHLQIIKSEINDFKPARIAIDSLSALARGVSNNAFRQFVIGVTGYAKQEEITGLFTNTSDQFMGAHSITDSHIEEITDTIILLQYVEIRGEMSRAINVFKMRGSWHDKAIREFMISDKGPDIKDSFRNFERIISGSPTRI
In the case of B1, the “stoichiometry N” value in “cryo-EM structure” is 6.
